Assays:
[1] = molecular target: MOR (Modulator Of Repression) of bacteriophage TP901-1, wild type, untagged (bacteriophage TP901-1) (UniProt O48504); experiment: cross-linking; 0.05% glutaraldehyde, room temperature, 0-60 min, 20 mM HEPES pH 7.5, 200 mM NaCl (100 mM salt by p-0027); CI about 20 uM, MOR 4 or 20 uM, alone or together; SDS PAGE, coomassie
[2] = molecular target: T1, CI-NTD89-His6 (CI N-terminal domain 1-80 plus linker 81-89) (bacteriophage TP901-1, UniProt O48503 1-89); experiment: SEC; Superdex 75 Prep Grad, 20 mM Tris, 100 mM NaCl, pH 7.4; CI-NTD89 and MOR mixed in about 4:1 molar ratio; details: both partners purified
T1 construct: CI repressor, lactococcal bacteriophage TP901-1, N-terminal domain (1-80) and flexible linker (81-89); also called CI-NTD_(1-89); source: E. coli BL21 (pET30a(+)), purified (His-Trap, SEC)
T1 sequence (looked up): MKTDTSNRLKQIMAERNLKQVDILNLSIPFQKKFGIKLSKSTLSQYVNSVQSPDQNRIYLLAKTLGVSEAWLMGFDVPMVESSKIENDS

[3] = molecular target: the molecule itself; experiment: cross-linking; 0.05% glutaraldehyde, room temperature, 0-60 min, 20 mM HEPES pH 7.5, 200 mM NaCl (100 mM salt by p-0027); CI about 20 uM, MOR 4 or 20 uM, alone or together; SDS PAGE, coomassie

MOR (Modulator Of Repression) of bacteriophage TP901-1, wild type, untagged (from UniProt O48504 1-72) (natural protein)
stoichiometry N [1]: 2

B1: MOR (1-72) released from GST-MOR by thrombin (natural protein, bacteriophage TP901-1, UniProt O48504 1-72, looked up)
chain: MSYDYSSLLGKITEKCGTQYNFAIAMGLSERTVSLKLNDKVTWKDDEILKAVHVLELNPQDIPKYFFNAKVH
notes: MOR (Modulator Of Repression), lactococcal bacteriophage TP901-1, residues 1-72; also called cleaved MOR; source: E. coli BL21 (pGEX4-2, GST-MOR), purified (GST-Trap, thrombin cleavage on the column, SEC)
stoichiometry N [2]: 1

B2: CI repressor of bacteriophage TP901-1, wild type, untagged (natural protein, UniProt O48503 1-180, looked up)
chain: MKTDTSNRLKQIMAERNLKQVDILNLSIPFQKKFGIKLSKSTLSQYVNSVQSPDQNRIYLLAKTLGVSEAWLMGFDVPMVESSKIENDSENIEETITVMKKLEEPRQKVVLDTAKIQLKEQDEQNKVKQIEDYRLSDEYLEEQISKASAYGGGQLNDNDKEFFKRLLKNTLKEKIDKGDL
notes: CI repressor, lactococcal bacteriophage TP901-1; also called native CI repressor; full length CI; source: E. coli AJ159 (cI in expression vector pUHE23-2), in cell extract; also purified (eluted from the DNA pellet with 1 M NaCl; pooled fractions from Superdex gel filtration)
stoichiometry N [3]: 2
